Assay results reported in US20200024320A1 (published 2020).
Where no end group is shown, it is not given here.

T1: MBP-RAMP2 ECD [L106R]-(GS)5-CLR ECD-H6 fusion protein (human, UniProt O60895 43-143; Q16602 29-144)
T1 chain: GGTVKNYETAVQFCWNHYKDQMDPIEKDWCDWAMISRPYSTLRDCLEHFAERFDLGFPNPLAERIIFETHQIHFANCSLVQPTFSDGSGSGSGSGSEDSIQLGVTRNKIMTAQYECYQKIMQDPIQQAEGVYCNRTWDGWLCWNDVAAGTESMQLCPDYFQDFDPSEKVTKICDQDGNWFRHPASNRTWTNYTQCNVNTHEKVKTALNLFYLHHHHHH


Target: T1, MBP-RAMP2 ECD [L106R]-(GS)5-CLR ECD-H6 …
Experiment: AlphaLISA competition, Biotin-AM probe

Row | fold increase in affinity (against AM(37-52)NH2) [fold] | Binder
1 | ~100 | DKDNVAPRSKISPWGY-NH2 [AM(37-52)NH2 [Q50W]]

Target: T1, MBP-RAMP2 ECD [L106R]-(GS)5-CLR ECD-H6 …
Experiment: AlphaLISA/AlphaScreen competition, RAMP2-CLR ECD

Row | IC50 [µM] | Binder
2 | 5 to 15 | DKDNVAPRSKISPQGY-NH2 (also called WT (AM(37-52)NH2 scaffold)) [AM(37-52)NH2]

Target: T1, MBP-RAMP2 ECD [L106R]-(GS)5-CLR ECD-H6 …
Experiment: FP competition, FITC-AM W/W probe, RAMP2-CLR ECD

Row | Binder | Ki [µM] | pKI
3 | DKDNVAPRSLISPWGY-NH2 [AM(37-52)NH2 [K46L, Q50W]] | 1.66 | 5.78
4 | DKDNVAPRWWISPWGF-NH2 [AM(37-52)NH2 [S45W, K46W, Q50W, Y52F]] | 16.6 | 4.78
5 | DKFNVAPRSLISPWGF-NH2 [AM(37-52)NH2 [D39F, K46L, Q50W, Y52F]] | 30.3 | 4.55
6 | DKDNVAPRTWISPWGY-NH2 [AM(37-52)NH2[S45T, K46W, Q50W]] | 12.5 | 4.9
7 | DKDNVAPRSLISPWGF-NH2 [AM(37-52)NH2 [K46L, Q50W, Y52F]] | 89.1 | 4.05
8 | DKDNVAPRWLISPWGF-NH2 [AM(37-52)NH2 [S45W, K46L, Q50W, Y52F]] | 4.07 | 5.39
9 | DKKNVAPRSKISPQGY-NH2 [AM(37-52)NH2 [D39K]] | 6.1 | 5.22
10 | DKDNVAPRSKISPQGY-NH2 (also called WT (AM(37-52)NH2 scaffold)) [AM(37-52)NH2] | 20.4 | 4.69
11 | DKDNVAPRWMISPWGF-NH2 [AM(37-52)NH2 [S45W, K46M, Q50W, Y52F]] | 7.76 | 5.11
12 | FVPTDVGPWSF-NH2 [CGRP(27-37)NH2 [N31D, S34P, K35W, A36S]] | 2.45 | 5.61
13 | FVPTDTGPWGY-NH2 [CGRP(27-37)NH2 [N31D, V32T, S34P, K35W, A36G, F37Y]] | 14.5 | 4.84
14 | FVPTDTGPWSF-NH2 [CGRP(27-37)NH2 [N31D, V32T, S34P, K35W, A36S]] | 2.75 | 5.56

Further binders by falling Ki, results first:

Row | Ki [µM] | pKI | Binder
15 | 2.14 | 5.67 | DKDNVAPRSKISPFGY-NH2 [AM(37-52)NH2 [Q50F]]
16 | 1.83 | 5.74 | DKFNVAPRSLISPWGY-NH2 [AM(37-52)NH2 [D39F, K46L, Q50W]]
17 | 1.57 | 5.8 | DKDNVAPRTLISPWGY-NH2 [AM(37-52)NH2[S45T, K46L, Q50W]]
18 | 1.25 | 5.9 | DKDNVAPRWLIGPWGF-NH2 [AM(37-52)NH2 [S45W, K46L, S48G, Q50W, Y52F]]
19 | 0.324 | 6.49 | FVPTDVGPWSY-NH2 [CGRP(27-37)NH2 [N31D, S34P, K35W, A36S, F37Y]]
20 | 0.316 | 6.5 | DKDNVAPRSKISPWGY-NH2 [AM(37-52)NH2 [Q50W]]
21 | 0.0813 | 7.09 | DKDNVAPRWKISPWGY-NH2 (also called S45W/Q50W double mutant) [AM(37-52)NH2 [S45W, Q50W]]

Target: T1, MBP-RAMP2 ECD [L106R]-(GS)5-CLR ECD-H6 …
Experiment: FP competition; KI at RAMP1-CLR ECD over KI at RAMP2-CLR ECD

Row | Receptor Selectivity (fold) | Binder
22 | 5 | DKDNVAPRSKISPFGY-NH2 [AM(37-52)NH2 [Q50F]]
